Results published in patent US20040028607A1.

Target: monoacetylated histone H3 peptide …(AcK)APRKQL, acetylated on lysine-14
Test: cell-based or functional assay

Chain of monoacetylated histone H3 peptide …(AcK)APRKQL, acetylated on lysine-14 (peptide, as listed by the source): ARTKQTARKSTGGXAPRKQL

| Substance | Km, deacetylation of acetylated H3 peptide, charcoal-binding assay | V/K, deacetylation of acetylated H3 peptide, charcoal-binding assay |
| --- | --- | --- |
| recombinant human SIRT2 (6xHis-tagged, with factor Xa cleavage site, purified from E. coli) (from UniProt Q8IXJ6 1-389) (enzyme) | 54.2 µM | 3930 M⁻¹ s⁻¹ |
| recombinant yeast Hst2p (from UniProt P53686 1-357) (enzyme) | 0.28 µM | 718000 M⁻¹ s⁻¹ |
